# Measured values taken from paper PMC4072508, “Genome-Wide Prediction and Validation of Peptides That Bind Human Prosurvival Bcl-2 Proteins” (PLoS Computational Biology, 2014).
# Biological target: Bcl-xL, Q07817
# Assay: peptide SPOT array, c-Myc-tagged receptor at 1 uM or 100 nM, anti-c-Myc-Cy3
# Chain of Bcl-xL, Q07817 (Q07817 1-209): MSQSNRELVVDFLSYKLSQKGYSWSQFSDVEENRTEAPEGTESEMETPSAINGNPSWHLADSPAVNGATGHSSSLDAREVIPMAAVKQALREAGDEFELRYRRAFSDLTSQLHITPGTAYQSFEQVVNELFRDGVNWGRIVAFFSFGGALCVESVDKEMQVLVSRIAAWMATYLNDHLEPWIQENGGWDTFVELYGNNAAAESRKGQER
row,Binder,SPOT signal as a fraction of Bim BH3's signal on the same receptor and array
1,RLRHDEIITLLKNVGERVVLEVEYEL [GRIP2],0.03
2,EEQLEKLIKKLRKASEGLNSTLKDHI [CCDC76],0.03
3,NKDGKSVSNRDRRLSDNCGGKVLSIT [KIAA0430],0.22
4,KTRADSVANKLGSFSKTLGIKLKKNM [OTUD7A],0.87
5,VIKQRRLPDQDSKLADRIQLSGRYYL [RAPGEF2],1.24
6,YRDLPLAAVDLSTAGSQLLSNLDEDY [C15orf27],0.02
7,SSDVIAVCQSLRQMAEKCQQDPESCW [MMS19],0.02
8,LAELQQRSDQLLDMSSTFNKTTQNLA [VAMP5],0.02
9,AYTMERSARQIMHTAMKYNLGLDLRT [GLUD2],0.19
10,AKIIGNNVKKLQKFASTVKMWVFEET [GPD1L],0.07
11,QEQLLTLASILREDGKVFDEKVYYTA [HEBP2],0.03
12,LARIRRRIKWLQDGSQSLFGRLHNDC [VWA3B],0.56
13,AHKARALARLLRQTALAAFSDFKRLQ [FAM43B],0.65
14,YKGHREIARYLLEQGAQVNRRSAKGN,1.44
15,QAEADHLGKELQSVSAKLQAQVEENE [GOLGA6L1],0.02
16,NKQLRKETESDRKIALEAQKKAKVKI,0.32
17,KSRLVQQSKADKELADELQERCQRPA [TRIM58],0.05
18,YGRLRPRARSLSKALTAINWLTKKFL [MYO15A],0.94
19,SGEFREIGTVIDQIAETLWEQVFSKL [ATL2],0.03
20,YIEYLKSSDRLDEAAQRLATVVNDER [XAB2],0.03
21,HNQLTTVPERLSNCSRSLKNLILKNN [TLR7],0.29
22,GQISDEVAERLMTIAYESGVNLFDTA [KCNAB1],0.02
23,KPRMSNTSFVIQHFADKVEYKCEGFL [MYO5C],0.04
24,RYRHGAPAEQLRHLLDMLTTKWATLQ,0.97
25,HRTSNVLTLSDKRFANFSGGKITKDV [USP36],1.11
26,ARELEEISERLEEASGATSAQIEMNK [MYH13],0.02
27,GHDATEDARTILELARYFLKHGPKKI [XXXX],0.11
28,SQATGELADLIQQLSEKFGKNLNKDH [TRPC7],0.03

row,Binder,SPOT signal as a fraction of Bim BH3's signal on the same receptor and array
1,AERHKQEADDIVRVAKTANDTSTEAY [LAMC1],0.02
2,SRELEEISERLEEAGGATSAQIEMNK [MYH2],0.02
3,AHGVRDVSKELVGLAEHAATRLRFTK [TMEM151A],0.1
4,DLSSTFVSLALRKVLDWPLSARREKG [TTC31],0.17
5,NEEGQQFALKDHRLGRTSFRNLKNKR [RIOK2],1.05
6,YKGHREIARYDLEQGAQVNRRSAKGN,1.82
7,YEHLRQFCLELNGLAVKLQSECHPDT [MOBKL3],0.03
8,NRQLANMVNNLKEISQEAREGTQGER [TRIM21],0.03
9,LGRTGQVCLFDKRGADQHALDQEQRD [ACAP3],0.08
10,DTIFHRAAVRLRDLGGAILRHARRQA [BRPF3],0.9
11,FPDARDMVRYLGDFADTLGLRVQYNT [FOXRED2],0.03
12,LQETTLVANQLREAASRLKWTTNTGP [MAN2B1],0.06
13,LEKQNNSASDLHEISNEILRIIERTG [GPR112],0.02
14,RGRTRGWVQTDARMSRRTRGPVERAA [C6orf223],0.91
15,SAKLGKSSSLLTQTSEECNGILTEKM [ZNF396],0.02
16,SCMATVIHNPDKALGDQFYKEAIEHC [DPF3],0.02
17,AIKSQRMVQNLLSLARKICERVHRSP [ZBED4],0.26
18,LREVRESIRFLRQVGRDWVQRRREAL [CYP46A1],0.8
19,IERMIHFGRELQAMSEQLRRDCGKNT [RANBP9],0.06
20,LVNIRKDTLRLVKCAEEVKSPGEEAS [RNF157],0.03
21,RYRHGAPAEQDRHLADMLTTKWATLQ,0.71
22,NKQLRKETESLRKIALEAQKKAKVKI,0.5
23,ASKLKGAAVKLADFGLAIEVEGEQQA [CAMK2A],0.03
24,NKQLRKETESLRKILLEAQKKAKVKI,0.31
25,ILRHKDIIDDLVKSGHKIMTACSEEE [DST],0.03
26,GFANHDVVEVLRNALQVVHLTLVRRK [INADL],0.18
27,TFETQEDAQKILQEAEKLNYKDKKLN [BOLL],0.02
